From publication PMC5648196, “The transcriptional regulator LysG (Rv1985c) of Mycobacterium tuberculosis activates lysE (Rv1986) in a lysine-dependent manner”

Legend:
[1] = target: T1, LysG(Mt) (Mycobacterium tuberculosis) (UniProt P9WMF5); assay: EMSA
T1 sequence: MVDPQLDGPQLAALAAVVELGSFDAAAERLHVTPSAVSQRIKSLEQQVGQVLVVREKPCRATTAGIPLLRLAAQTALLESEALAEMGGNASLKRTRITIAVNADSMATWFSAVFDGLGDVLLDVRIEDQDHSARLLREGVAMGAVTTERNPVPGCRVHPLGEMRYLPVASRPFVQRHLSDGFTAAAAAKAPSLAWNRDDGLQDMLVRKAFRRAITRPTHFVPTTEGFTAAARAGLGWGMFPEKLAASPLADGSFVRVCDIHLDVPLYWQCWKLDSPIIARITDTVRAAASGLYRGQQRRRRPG

LysG(Mt) = target: T2, LysG(Mt) (Mycobacterium tuberculosis, UniProt P9WMF5 1-303); assay: EMSA; 200 pmole LysG, 10 fmole DNA; settings: protein: recombinant, tags: His6 (pQE30-LysG(Mt)x6His), chain copies: 4, blunt
T2 sequence: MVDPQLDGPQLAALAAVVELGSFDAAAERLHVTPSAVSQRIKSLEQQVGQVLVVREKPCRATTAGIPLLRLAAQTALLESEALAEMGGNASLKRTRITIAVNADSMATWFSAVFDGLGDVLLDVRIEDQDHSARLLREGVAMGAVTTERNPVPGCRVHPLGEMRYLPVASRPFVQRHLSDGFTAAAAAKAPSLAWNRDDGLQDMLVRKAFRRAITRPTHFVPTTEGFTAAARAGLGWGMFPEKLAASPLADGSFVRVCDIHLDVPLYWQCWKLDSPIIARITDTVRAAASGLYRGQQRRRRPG

Q: Which binding [1] does the source give for “CGCTGCGGTCATTGTGTTCCTCTTAGTCGTTCCGAAAGTTGTTCCAACAACTCGGCTTCGGTCAGTTCGTGGTAGGAGTCGGTGGCTTGCTGGGTTGCGACTGCGGTTGCCCCAATTTCGAGGAGCTCAGGC (double strand) [oligonucleotide VII (ppsC upstream)]” here?
A: no binding

Q: How did the binding [1] turn out when “TTCAGACCGGCACGTTTCAGAGCGGTGGGGATGTCCCGACGTGCGATCCGACAGGGGTTCGCAGGGTCCGCAAAAAACATAGTGAACGCCAGAAAGCCGAATGGGAGTACAAGGCGATGCCGGT (double strand) [oligonucleotide V (fadD26 upstream)]” was run?
A: no binding

B1: oligonucleotide III (dsDNA)
DNA 1: AAATGAAGAATTATTAGCTATACTGACCCATACAAACTGCCTAGTGTCGATTGC
DNA 2: GCAATCGACACTAGGCAGTTTGTATGGGTCAGTATAGCTAATAATTCTTCATTT
Q: Does B1 bind (LysG(Mt); label: 5'-biotin on reverse strand (836))?
A: no binding

B2: oligonucleotide II (dsDNA)
DNA 1: CTCAGGTGTAGACCATCTGCGGAGCGTCGCACTGCACATTAATAATGCTAATGT
DNA 2: ACATTAGCATTATTAATGTGCAGTGCGACGCTCCGCAGATGGTCTACACCTGAG
Q: Does B2 bind (LysG(Mt); label: 5'-biotin on reverse strand (834))?
A: no binding

B3: oligonucleotide IV (dsDNA)
DNA 1: CGCACTGCACATTAATAATGCTAATGTAAATGAAGAATTATTAGCTATACTGAC
DNA 2: GTCAGTATAGCTAATAATTCTTCATTTACATTAGCATTATTAATGTGCAGTGCG
Q: Does B3 bind (LysG(Mt); label: 5'-biotin on reverse strand (838))?
A: binds
